According to patent publication US20240358755A1 (IMMATICS BIOTECHNOLOGIES, published 2024):

target: T1, HLA-B*07:02 (human); experiment: UV peptide exchange, anti-b2m ELISA; exchange yield grade
T1 construct: Peptide-receptive monomer in the UV-ligand exchange assay
Source text: (§1) Candidate peptides for T cell based therapies according to the present invention were further tested for their MHC binding capacity (affinity). The individual peptide-MHC complexes were produced by UV-ligand exchange, where a UV-sensitive peptide is cleaved upon UV-irradiation and exchanged with the peptide of interest as analyzed. Only peptide candidates that can effectively bind and stabilize the peptide-receptive MHC molecules prevent dissociation of the MHC complexes. To determine the yield of the exchange reaction, an ELISA was performed based on the detection of the light chain (β2m) of stabilized MHC complexes. The assay was performed as generally described in Rodenko et al. (Rodenko et al., 2006).
(§2) 96 well MAXISorp plates (NUNC) were coated over night with 2 μg/ml streptavidin in PBS at room temperature, washed 4× and blocked for 1 h at 37° C. in 2% BSA containing blocking buffer. […] Peptide-MHC monomers of the UV-exchange reaction were diluted 100-fold in blocking buffer. Samples were incubated for 1 h at 37° C., washed four times, incubated with 2 μg/ml HRP conjugated anti-β2m for 1 h at 37° C., washed again and detected with TMB solution that is stopped with […]. Absorption was measured at 450 nm.

| Binder | peptide exchange yield [%] |
| --- | --- |
| IPLHFSTAF | ≥ 75 |
| ASRIQVILL | 50 to 75 |
| LPALLRSL | ≥ 75 |
| RPSPVRVAAL | ≥ 75 |
| RAPLPLLLL | 50 to 75 |
| YVGPTRLEL | ≥ 75 |
| TPLTRTTL | 50 to 75 |

target: T2, HLA-A*02:01 (human); experiment: as above
T2 construct: Peptide-receptive MHC class I monomer in the UV-ligand exchange assay
Source text: as §1, §2

| Binder | peptide exchange yield [%] |
| --- | --- |
| HLFSVLSAI | ≥ 75 |
| LVFESVVAA | ≥ 75 |
| SLSKLVATV | ≥ 75 |
| ITPDSIPSV | 50 to 75 |
| ILMILQPQL | ≥ 75 |
| LLSRGILIL | ≥ 75 |
| RLQEGLAAL | ≥ 75 |
| GLLDAFLRL | ≥ 75 |
| FLLLEKGGEL | ≥ 75 |
| RLLRLIPIL | ≥ 75 |
| YMLEMDNSMKI | ≥ 75 |
| IQAPALLKV | ≥ 75 |
| ALNLSRLTV | ≥ 75 |
| TLNVLITL | 20 to 50 |
| VLQSLQHEL | ≥ 75 |
| ILVTAWKGV | 50 to 75 |
| SLQESLPNA | 50 to 75 |
| IIIDRILLL | ≥ 75 |
| LLGVVSHSV | ≥ 75 |
| SLFPISLTV | ≥ 75 |
| ALGPMAFRV | ≥ 75 |
| SLKSSILFL | 50 to 75 |
| ALIVLHLSL | 20 to 50 |
